We go through 11 molecules from patent US20250066503A1, “CELL INJURY INDUCING THERAPEUTIC DRUG FOR USE IN CANCER THERAPY” (CHUGAI SEIYAKU KABUSHIKI KAISHA, priority 2016, published 2025).

Positions count from the first letter of the chain named.

In this experiment the target is T1, soluble human CD3 epsilon chain (human, UniProt P07766 23-126).
T1 construct: also called CD3ε
Description: SPR. In general terms: SPR reads the build-up and loss of mass on a sensor chip optically.

Broadly, the Kd is the free concentration of one partner at which half of the binding sites on the other are occupied at equilibrium, for simple one-to-one binding.

T1 sequence (P07766 23-126 limits assumed): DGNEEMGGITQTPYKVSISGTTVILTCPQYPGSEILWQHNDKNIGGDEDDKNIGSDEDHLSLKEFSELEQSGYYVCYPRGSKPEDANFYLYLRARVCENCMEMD

B1: TR01H080-E22Hh/none-Hi-Kn010G3/L0000-k0 (antibody, V domains shown)
VH: QVQLVESGGGLVQPGRSLRLSCAASGFTFSNAWMHWVRQAPGKGLEWVAQIKDKSNNYATYYAESVKGRFTISRADSKNSIYLQMNSLKTEDTAVYYCRYVHYAAVRRRLSSYGVDIWGQGTTVTVSS
VL: DIVMTQSPLSLPVTPGEPASISCRSSQSLVHSNRNTYLHWYQQKPGQAPRLLIYKVSNRFSGVPDRFSGSGSGTDFTLKISRVEAEDVGVYYCGQGTQVPYTFGQGTKLEIKR
notes: one-arm
B1 showed a Kd of 3.25 nM.

B2: TR01H079-E22Hh/none-Hi-Kn010G3/L0000-k0 (antibody, V domains shown)
VH: B1 VH with V106A, R107E, R108M, R109V, L110R, S111D
VL: B1 VL
notes: one-arm
As for B2, the dissociation constant Kd is 50.5 nM.

B3: TR01H082-E22Hh/none-Hi-Kn010G3/TR01L024-k0 (antibody, V domains shown)
VH: QVQLVESGGGLVQPGRSLRLSCAASGFTFSNAWMHWVRQAPGKGLEWVAQIKDKSQNYATYYAESVKGRFTISRDDSKNSLYLQMNSLKTEDTAVYYCRYVHYAAGYGVDAWGQGTTVTVSS
VL: DIVMTQSPLSLPVTPGEPASISCQASESPVHSNRNTYLHWYLQKPGQSPQLLIYKVSNRFSGVPDRFSGSGSGTDFTLKISRVEAEDVGVYYCTQGTQVPYTFGQGTKLEIK
notes: one-arm
As for B3, binding was characterised by a dissociation constant (Kd) of 47.6 nM.

B4: TR01H040-E22Hh/none-Hi-Kn010G3/TR01L013-k0 (antibody, V domains shown)
VH: B3 VH with D75A, L81I, A104S, G106S
VL: B3 VL with P29L, S61R, T94G, L109V, K112E
notes: one-arm
B4 yielded an equilibrium dissociation constant (Kd) of 41.5 nM.

B5: TR01H015-E22Hh/none-Hi-Kn010G3/TR01L003-k0 (antibody, human IgG1, L234A L235A, N297A)
heavy: QVQLVESGGGLVQPGRSLRLSCAASGFTFSNAWMHWVRQAPGKGLEWVAQIKGKSNNYATYYAESVKGRFTISRADSKNSIYLQMNSLKTEDTAVYYCRYVHYSASYGVDIWGQGTTVTVSSASTKGPSVFPLAPSSKSTSGGTAALGCLVKDYFPEPVTVSWNSGALTSGVHTFPAVLQSSGLYSLSSVVTVPSSSLGTQTYICNVNHKPSNTKVDKKVEPKSCDKTHTCPPCPAPEAAGGPSVFLFPPKPKDTLMISRTPEVTCVVVDVSHEDPEVKFNWYVDGVEVHNAKTKPREEQYASTYRVVSVLTVLHQDWLNGKEYKCKVSNKALPAPIEKTISKAKGQPREPQVYTLPPSRCELTKNQVSLSCAVKGFYPSDIAVEWESNGQPENNYKTTPPVLDSDGSFFLVSKLTVDKSRWQQGNVFSCSVMHEALHNHYTQKSLSLSPDYKDDDDK
VL: B3 VL with Q24R, A25S, E27Q, P29L, L42Q, S48A, Q50R, T94G, L109V, K112E
notes: one-arm
Regarding B5, the Kd turned out to be 63.4 nM.

B6: TR01H040-E22Hh/none-Hi-Kn010G3/L0000vk1-k0 (antibody, V domains shown)
VH: B3 VH with D75A, L81I, A104S, G106S
VL: DIQMTQSPSSLSASVGDRVTITCRSSQSLVHSNRNTYLHWYQQKPGKAPKLLIYKVSNRFSGVPSRFSGSGSGTDFTFTISSLQPEDIATYYCGQGTQVPYTFGQGTKVEIK
notes: one-arm
B6 yielded a Kd of 46.9 nM.

B7: TR01H040-E22Hh/none-Hi-Kn010G3/TR01L018-k0 (antibody, V domains shown)
VH: B3 VH with D75A, L81I, A104S, G106S
VL: B3 VL with T94G
notes: one-arm
Take B7: the dissociation constant Kd was determined as 45.1 nM.

B8: TR01H040-E22Hh/none-Hi-Kn010G3/TR01L012-k0 (antibody, V domains shown)
VH: B3 VH with D75A, L81I, A104S, G106S
VL: B3 VL with Q24R, A25S, E27Q, P29L, S61R, T94G, L109V, K112E
notes: one-arm
Take B8: binding was put at a Kd of 42.2 nM.

B9: TR01H015-E22Hh/none-Hi-Kn010G3/TR01L001-k0 (antibody, human IgG1, L234A L235A, N297A)
heavy: B5 heavy
VL: B3 VL with P29L, L42Q, S48A, Q50R, T94G
notes: one-arm
B9 gave a Kd of 65.6 nM.

B10: TR01H015-E22Hh/none-Hi-Kn010G3/TR01L004-k0 (antibody, human IgG1, L234A L235A, N297A)
heavy: B5 heavy
VL: B3 VL with P29L, L42Q, S48A, Q50R, T94G, L109V, K112E
notes: one-arm
B10 showed a Kd of 73.4 nM.

B11: TR01H015-E22Hh/none-Hi-Kn010G3/TR01L002-k0 (antibody, human IgG1, L234A L235A, N297A)
heavy: B5 heavy
VL: B3 VL with Q24R, A25S, E27Q, P29L, T94G
notes: one-arm
In the case of B11, the dissociation constant Kd was determined as 71.4 nM.
